From patent US20260216242A1 (ALMAC DISCOVERY, published 2026)
Substitutions are numbered along the chain they refer to. In names and notes the source's numbering stands.

B1: D10 A06-hFc (S239C + S442C), [G4S]1 linkers (Fc fusion)
chain 1: QVQLVESGGGLVQPGGSLRLSCAASGSIFSVNTMGWYRQAPGKQRDLVAVATSGGTIHYADSVKGRFTISRDNAKNTVYLQMNSLKPEDTAVYYCNLVVPYGMIAGDHDYWGQGTKVTVSSGGGGSEPKSSDKTHTCPPCPAPELLGGPCVFLFPPKPKDTLMISRTPEVTCVVVDVSHEDPEVKFNWYVDGVEVHNAKTKPREEQYNSTYRVVSVLTVLHQDWLNGKEYKCKVSNKALPAPIEKTISKAKGQPREPQVYTLPPSRDELTKNQVSLYCLVKGFYPSDIAVEWESNGQPENNYKTTPPVLDSDGSFFLYSKLTVDKSRWQQGNVFSCSVMHEALHNHYTQKSLCLSPGK
chain 2: QVHLVESGGGLVQAGGSLRLSCAASGRTFLSMGWFRQAPGKEREFVAAISWTGGSTGYADSVKGRFTISRESDKETMYLQMNSLKPEDTAVYYCAARGDVYYGGDDATRYKYWGQGTQVTVSSGGGGSEPKSSDKTHTCPPCPAPELLGGPCVFLFPPKPKDTLMISRTPEVTCVVVDVSHEDPEVKFNWYVDGVEVHNAKTKPREEQYNSTYRVVSVLTVLHQDWLNGKEYKCKVSNKALPAPIEKTISKAKGQPREPQVYTLPPSRDELTKNQVSLTCLVKGFYPSDIAVEWESNGQPENNYKTTPPVLDSDGSFFLTSKLTVDKSRWQQGNVFSCSVMHEALHNHYTQKSLCLSPGK
notes: Biparatopic heterodimer; also called #666
B2: D10 E10-hFc (S239C + S442C), [G4S]1 linkers (Fc fusion)
chain 1: B1 chain 1
chain 2: QVQLVESGGGLVQAGGSLRLSCAVSGRALSDYNIGWFRQAPGKEREFVARKTWDGSSTRYDDSVKGRFTVSIEDAKNTAYLQMSSLKTEDTAVYYCAAGRYSRARGWEYDYWGQGTQVTVSSGGGGSEPKSSDKTHTCPPCPAPELLGGPCVFLFPPKPKDTLMISRTPEVTCVVVDVSHEDPEVKFNWYVDGVEVHNAKTKPREEQYNSTYRVVSVLTVLHQDWLNGKEYKCKVSNKALPAPIEKTISKAKGQPREPQVYTLPPSRDELTKNQVSLTCLVKGFYPSDIAVEWESNGQPENNYKTTPPVLDSDGSFFLTSKLTVDKSRWQQGNVFSCSVMHEALHNHYTQKSLCLSPGK
notes: Biparatopic heterodimer; also called #668
B3: A06 E10-hFc (S239C + S442C), [G4S]1 linkers (Fc fusion)
chain 1: B1 chain 2 with T279Y, T320Y
chain 2: B2 chain 2
notes: Biparatopic heterodimer
B4: A06 E06-hFc (S239C + S442C), [G4S]1 linkers (Fc fusion)
chain 1: B1 chain 2 with T279Y, T320Y
chain 2: QVHLVESGGGLVQAGGSLRLSCAASRRSFSEYAMGWFRQAPGKEREFVAAIGWSGVIEYADSVKGRFTISRDNAKDTVYLQMNSLKPEDTAVYYCAAGLGIRVVSQTPAYWGQGTQVTVSSGGGGSEPKSSDKTHTCPPCPAPELLGGPCVFLFPPKPKDTLMISRTPEVTCVVVDVSHEDPEVKFNWYVDGVEVHNAKTKPREEQYNSTYRVVSVLTVLHQDWLNGKEYKCKVSNKALPAPIEKTISKAKGQPREPQVYTLPPSRDELTKNQVSLTCLVKGFYPSDIAVEWESNGQPENNYKTTPPVLDSDGSFFLTSKLTVDKSRWQQGNVFSCSVMHEALHNHYTQKSLCLSPGK
notes: Biparatopic heterodimer; also called #671
B5: A06 E06-hFc (S239C + S442C), mixed linkers (A06 - [G4S]1, E06 - [G4S]3) (Fc fusion)
chain 1: B1 chain 2 with T279Y, T320Y
chain 2: QVHLVESGGGLVQAGGSLRLSCAASRRSFSEYAMGWFRQAPGKEREFVAAIGWSGVIEYADSVKGRFTISRDNAKDTVYLQMNSLKPEDTAVYYCAAGLGIRVVSQTPAYWGQGTQVTVSSGGGGSGGGGSGGGGSEPKSSDKTHTCPPCPAPELLGGPCVFLFPPKPKDTLMISRTPEVTCVVVDVSHEDPEVKFNWYVDGVEVHNAKTKPREEQYNSTYRVVSVLTVLHQDWLNGKEYKCKVSNKALPAPIEKTISKAKGQPREPQVYTLPPSRDELTKNQVSLTCLVKGFYPSDIAVEWESNGQPENNYKTTPPVLDSDGSFFLTSKLTVDKSRWQQGNVFSCSVMHEALHNHYTQKSLCLSPGK
notes: Biparatopic heterodimer; also called #706
B6: D10 A06-hFc (S239C + S442C), mixed linkers (D10 - [G4S]1, A06 - [G4S]3) (Fc fusion)
chain 1: B1 chain 1
chain 2: QVHLVESGGGLVQAGGSLRLSCAASGRTFLSMGWFRQAPGKEREFVAAISWTGGSTGYADSVKGRFTISRESDKETMYLQMNSLKPEDTAVYYCAARGDVYYGGDDATRYKYWGQGTQVTVSSGGGGSGGGGSGGGGSEPKSSDKTHTCPPCPAPELLGGPCVFLFPPKPKDTLMISRTPEVTCVVVDVSHEDPEVKFNWYVDGVEVHNAKTKPREEQYNSTYRVVSVLTVLHQDWLNGKEYKCKVSNKALPAPIEKTISKAKGQPREPQVYTLPPSRDELTKNQVSLTCLVKGFYPSDIAVEWESNGQPENNYKTTPPVLDSDGSFFLTSKLTVDKSRWQQGNVFSCSVMHEALHNHYTQKSLCLSPGK
notes: Biparatopic heterodimer; also called #702
B7: D10 E06-hFc (S239C + S442C), [G4S]1 linkers (Fc fusion)
chain 1: B1 chain 1
chain 2: B4 chain 2
notes: Biparatopic heterodimer
B8: D10 E10-hFc (S239C + S442C), mixed linkers (D10 - [G4S]1, E10 - [G4S]3) (Fc fusion)
chain 1: B1 chain 1
chain 2: QVQLVESGGGLVQAGGSLRLSCAVSGRALSDYNIGWFRQAPGKEREFVARKTWDGSSTRYDDSVKGRFTVSIEDAKNTAYLQMSSLKTEDTAVYYCAAGRYSRARGWEYDYWGQGTQVTVSSGGGGSGGGGSGGGGSEPKSSDKTHTCPPCPAPELLGGPCVFLFPPKPKDTLMISRTPEVTCVVVDVSHEDPEVKFNWYVDGVEVHNAKTKPREEQYNSTYRVVSVLTVLHQDWLNGKEYKCKVSNKALPAPIEKTISKAKGQPREPQVYTLPPSRDELTKNQVSLTCLVKGFYPSDIAVEWESNGQPENNYKTTPPVLDSDGSFFLTSKLTVDKSRWQQGNVFSCSVMHEALHNHYTQKSLCLSPGK
notes: Biparatopic heterodimer; also called #704
B9: D10 E06-hFc (S239C + S442C), mixed linkers (D10 - [G4S]1, E06 - [G4S]3) (Fc fusion)
chain 1: B1 chain 1
chain 2: B5 chain 2
notes: Biparatopic heterodimer; also called #703
B10: D10 F05-hFc (S239C + S442C), [G4S]1 linkers (Fc fusion)
chain 1: B1 chain 1
chain 2: B2 chain 2 with V24A, L29F, S30G, K51R, E73D, D74N, S84N, A104V
notes: Biparatopic heterodimer; also called #669
B11: A06 F05-hFc (S239C + S442C), [G4S]1 linkers (Fc fusion)
chain 1: B1 chain 2 with T279Y, T320Y
chain 2: B2 chain 2 with V24A, L29F, S30G, K51R, E73D, D74N, S84N, A104V

Target: T1, Human ALPP (leucine zipper) (human)
T1 construct: Soluble human ALPP fused to a disulphide stabilised leucine zipper and a His tag; The whole entry is the construct; also called hALPP; PLAP
T1 chain: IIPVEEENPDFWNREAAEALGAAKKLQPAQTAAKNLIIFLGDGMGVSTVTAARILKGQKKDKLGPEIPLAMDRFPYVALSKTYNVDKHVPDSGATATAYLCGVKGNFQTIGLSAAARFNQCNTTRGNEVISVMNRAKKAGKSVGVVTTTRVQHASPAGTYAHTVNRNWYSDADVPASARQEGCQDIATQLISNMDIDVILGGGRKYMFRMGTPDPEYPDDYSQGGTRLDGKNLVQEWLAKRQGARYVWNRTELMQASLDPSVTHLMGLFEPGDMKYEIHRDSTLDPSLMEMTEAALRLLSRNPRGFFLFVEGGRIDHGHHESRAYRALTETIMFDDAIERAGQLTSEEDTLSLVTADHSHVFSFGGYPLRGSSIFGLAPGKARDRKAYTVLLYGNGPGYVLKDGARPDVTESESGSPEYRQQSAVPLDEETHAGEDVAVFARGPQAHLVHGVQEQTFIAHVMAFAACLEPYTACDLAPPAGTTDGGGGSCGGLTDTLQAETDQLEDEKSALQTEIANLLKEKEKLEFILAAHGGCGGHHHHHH
Assay: BLI, KD app (antigen immobilised on AR2G sensor)
Experimental: Binding kinetics were determined using the Biolayer Interferometry (BLI) Octet K2 or R4 system (Sartorius). […] For KD apparent measurements, the ALPP proteins were immobilised in sodium acetate pH5 buffer to AR2G sensors using amine coupling. To measure 1:1 interactions, AHC biosensors were used to immobilise Fc-fused proteins. All assays were conducted in HBS-EP with a plate temperature of 25° C. Ka (M⁻¹s⁻¹), Kd (s⁻¹) and KD (nM) values were determined using Octet Data Analysis High Throughput software (Sartorius) for Biolayer Interferometry.
In the case of B1, the Kd is reported as under 0.01 nM and the kon is reported as 332000 M⁻¹ s⁻¹.
B2 gave a Kd of under 0.01 nM and a kon of 374000 M⁻¹ s⁻¹.
B3 showed a kon of 516000 M⁻¹ s⁻¹.
For B4, the Kd was 0.0202 nM and the kon was 602000 M⁻¹ s⁻¹.
For B5, the Kd was under 0.01 nM and the kon was 429000 M⁻¹ s⁻¹.
In the case of B6, the Kd is reported as under 0.01 nM and the kon is reported as 343000 M⁻¹ s⁻¹.
Binder B7 has a Kd of 0.048 nM and a kon of 271000 M⁻¹ s⁻¹.
B8 was tested, and the Kd was under 0.01 nM and the kon was 385000 M⁻¹ s⁻¹.
Binder B9 has a Kd of 0.11 nM and a kon of 465000 M⁻¹ s⁻¹.
Binder B10 has a Kd of under 0.01 nM, a koff of under 1e-07 s⁻¹ and a kon of 430000 M⁻¹ s⁻¹.
Work on B11 yielded a kon of 422000 M⁻¹ s⁻¹.
